The values that follow come from publication PMC7081834.

For this assay, the target named is Myc-PTEN wild type (human) (UniProt P60484). Briefly: native gel or EMSA.

The substance “Myc-PTEN wild type, P60484 1-403 (natural protein; other documents disagree on this pair)” returned a stoichiometry N of 2.
